# Assay results published in patent US20220112296A1 (Chugai, published 2022).
# B1: GPC3 ERY22-B (bispecific antibody, human IgG1, kappa, L234A L235A, N297A)
# heavy 1: DIVMTQSPLSLPVTPGEPASISCRSSQSLVHSNRNTYLHWYQQKPGQAPRLLIYKVSNRFSGVPDRFSGSGSGTDFTLKISRVEAEDVGVYYCSQNTHVPPTFGQGTKLEIKSSASTKGPSVFPLAPSSKSTSGGTAALGCLVKDYFPEPVTVSWNSGALTSGVHTFPAVLQSSGLYSLSSVVTVPSSSLGTQTYICNVNHKPSNTKVDKKVEPKSCDKTHTCPPCPAPEAAGGPSVFLFPPKPKDTLMISRTPEVTCVVVDVSHEDPEVKFNWYVDGVEVHNAKTKPREEQYASTYRVVSVLTVLHQDWLNGKEYKCKVSNKALPAPIEKTISKAKGQPREPQVCTLPPSRDELTKNQVSLWCLVKGFYPSDIAVEWESNGQPENNYKTTPPVLDSDGSFFLYSKLTVDKSRWQQGNVFSCSVMHEALHNHYTQKSLSLSPHHHHHHHH
# light 1: QVQLVQSGAEVKKPGASVKVSCKASGYTFTDYEMHWIRQPPGQGLEWIGAIDPKTGDTAYSQKFKGRVTLTADKSTSTAYMELSSLTSEDTAVYYCTRFYSYTYWGQGTLVTVSSASVAAPSVFIFPPSDEQLKSGTASVVCLLNNFYPREAKVQWKVDNALQSGNSQESVTEQDSKDSTYSLSSTLTLSKADYEKHKVYACEVTHQGLSSPVTKSFNRGEC
# heavy 2: QVQLQQWGAGLLKPSETLSLTCAVYGGSFSGYYWSWIRQSPEKGLEWIGEINHGGYVTYNPSLESRVTISVDTSKNQFSLKLSSVTAADTAVYYCARDYGPGNYDWYFDLWGRGTLVTVSSASTKGPSVFPLAPSSKSTSGGTAALGCLVKDYFPEPVTVSWNSGALTSGVHTFPAVLQSSGLYSLSSVVTVPSSSLGTQTYICNVNHKPSNTKVDKKVEPKSCDKTHTCPPCPAPEAAGGPSVFLFPPKPKDTLMISRTPEVTCVVVDVSHEDPEVKFNWYVDGVEVHNAKTKPREEQYASTYRVVSVLTVLHQDWLNGKEYKCKVSNKALPAPIEKTISKAKGQPREPQVYTLPPSRCELTKNQVSLSCAVKGFYPSDIAVEWESNGQPENNYKTTPPVLDSDGSFFLVSKLTVDKSRWQQGNVFSCSVMHEALHNHYTQKSLSLSP
# light 2: not shown
# B2: GPC3 ERY22-dBBDu_183/L063 (bispecific antibody, human IgG1, kappa, L234A L235A, N297A)
# heavy 1: DIVMTQSPLSLPVTPGEPASISCRSSQSLVHSNRNTYLHWYQQKPGQAPRLLIYKVSNRFSGVPDRFSGSGSGTDFTLKISRVEAEDVGVYYCSQNTHVPPTFGQGTKLEIKSSASTKGPSVFPLAPSSKSTSGGTAALGCLVKDYFPEPVTVSWNSGALTSGVHTFPAVLQSSGLYSLSSVVTVPSSSLGTQTYICNVNHKPSNTKVDKKVEPKSCDKTHTCPPCPAPEAAGGPSVFLFPPKPKDTLMISRTPEVTCVVVDVSHEDPEVKFNWYVDGVEVHNAKTKPREEQYASTYRVVSVLTVLHQDWLNGKEYKCKVSNKALPAPIEKTISKAKGQPREPQVCTLPPSRDELTKNQVSLWCLVKGFYPSDIAVEWESNGQPENNYKTTPPVLDSDGSFFLYSKLTVDKSRWQQGNVFSCSVMHEALHNHYTQKSLSLSPHHHHHHHH
# light 1: QVQLVQSGAEVKKPGASVKVSCKASGYTFTDYEMHWIRQPPGQGLEWIGAIDPKTGDTAYSQKFKGRVTLTADKSTSTAYMELSSLTSEDTAVYYCTRFYSYTYWGQGTLVTVSSASVAAPSVFIFPPSDEQLKSGTASVVCLLNNFYPREAKVQWKVDNALQSGNSQESVTEQDSKDSTYSLSSTLTLSKADYEKHKVYACEVTHQGLSSPVTKSFNRGEC
# heavy 2: QVQLVESGGGLVQPGRSLRLSCAASGFTFSNAWMHWVRQAPGKGLEWVAQIKDKGNAYAAYYAPSVKGRFTISRDDSKNSIYLQMNSLKTEDTAVYYCHYVHYASASTVLPAFGVDAWGQGTTVTVSSASTKGPSVFPLAPSSKSTSGGTAALGCLVKDYFPEPVTVSWNSGALTSGVHTFPAVLQSSGLYSLSSVVTVPSSSLGTQTYICNVNHKPSNTKVDKKVEPKSCDKTHTCPPCPAPEAAGGPSVFLFPPKPKDTLMISRTPEVTCVVVDVSHEDPEVKFNWYVDGVEVHNAKTKPREEQYASTYRVVSVLTVLHQDWLNGKEYKCKVSNKALPAPIEKTISKAKGQPREPQVYTLPPSRCELTKNQVSLSCAVKGFYPSDIAVEWESNGQPENNYKTTPPVLDSDGSFFLVSKLTVDKSRWQQGNVFSCSVMHEALHNHYTQKSLSLSPDYKDDDDK
# light 2: DIVMTQSPLSLPVTPGEPASISCRSSQELVHTNRHTYLHWYQQKPGQAPRLLIYKVSNRFPGVPDRFSGSGSGTDFTLKISRVEAEDVGVYYCAQGTQVPFTFGQGTKLEIKRTVAAPSVFIFPPSDEQLKSGTASVVCLLNNFYPREAKVQWKVDNALQSGNSQESVTEQDSKDSTYSLSSTLTLSKADYEKHKVYACEVTHQGLSSPVTKSFNRGEC
# B3: GPC3 ERY22-dBBDu_183/L072 (bispecific antibody, human IgG1, kappa, L234A L235A, N297A)
# heavy 1: DIVMTQSPLSLPVTPGEPASISCRSSQSLVHSNRNTYLHWYQQKPGQAPRLLIYKVSNRFSGVPDRFSGSGSGTDFTLKISRVEAEDVGVYYCSQNTHVPPTFGQGTKLEIKSSASTKGPSVFPLAPSSKSTSGGTAALGCLVKDYFPEPVTVSWNSGALTSGVHTFPAVLQSSGLYSLSSVVTVPSSSLGTQTYICNVNHKPSNTKVDKKVEPKSCDKTHTCPPCPAPEAAGGPSVFLFPPKPKDTLMISRTPEVTCVVVDVSHEDPEVKFNWYVDGVEVHNAKTKPREEQYASTYRVVSVLTVLHQDWLNGKEYKCKVSNKALPAPIEKTISKAKGQPREPQVCTLPPSRDELTKNQVSLWCLVKGFYPSDIAVEWESNGQPENNYKTTPPVLDSDGSFFLYSKLTVDKSRWQQGNVFSCSVMHEALHNHYTQKSLSLSPHHHHHHHH
# light 1: QVQLVQSGAEVKKPGASVKVSCKASGYTFTDYEMHWIRQPPGQGLEWIGAIDPKTGDTAYSQKFKGRVTLTADKSTSTAYMELSSLTSEDTAVYYCTRFYSYTYWGQGTLVTVSSASVAAPSVFIFPPSDEQLKSGTASVVCLLNNFYPREAKVQWKVDNALQSGNSQESVTEQDSKDSTYSLSSTLTLSKADYEKHKVYACEVTHQGLSSPVTKSFNRGEC
# heavy 2: QVQLVESGGGLVQPGRSLRLSCAASGFTFSNAWMHWVRQAPGKGLEWVAQIKDKGNAYAAYYAPSVKGRFTISRDDSKNSIYLQMNSLKTEDTAVYYCHYVHYASASTVLPAFGVDAWGQGTTVTVSSASTKGPSVFPLAPSSKSTSGGTAALGCLVKDYFPEPVTVSWNSGALTSGVHTFPAVLQSSGLYSLSSVVTVPSSSLGTQTYICNVNHKPSNTKVDKKVEPKSCDKTHTCPPCPAPEAAGGPSVFLFPPKPKDTLMISRTPEVTCVVVDVSHEDPEVKFNWYVDGVEVHNAKTKPREEQYASTYRVVSVLTVLHQDWLNGKEYKCKVSNKALPAPIEKTISKAKGQPREPQVYTLPPSRCELTKNQVSLSCAVKGFYPSDIAVEWESNGQPENNYKTTPPVLDSDGSFFLVSKLTVDKSRWQQGNVFSCSVMHEALHNHYTQKSLSLSPDYKDDDDK
# light 2: DIVMTQSPLSLPVTPGEPASISCQASQELVHMNRNTYLHWYQQKPGQAPRLLIYKVSNRFPGVPDRFSGSGSGTDFTLKISRVEAEDVGVYYCAQGTSVPFTFGQGTKLEIKRTVAAPSVFIFPPSDEQLKSGTASVVCLLNNFYPREAKVQWKVDNALQSGNSQESVTEQDSKDSTYSLSSTLTLSKADYEKHKVYACEVTHQGLSSPVTKSFNRGEC
# Molecular target: human CD137 (4-1BB) on cells (human, UniProt Q07011 24-255)
# Test: cell-based or functional assay
# human CD137 (4-1BB) on cells, sequence (Q07011 24-255): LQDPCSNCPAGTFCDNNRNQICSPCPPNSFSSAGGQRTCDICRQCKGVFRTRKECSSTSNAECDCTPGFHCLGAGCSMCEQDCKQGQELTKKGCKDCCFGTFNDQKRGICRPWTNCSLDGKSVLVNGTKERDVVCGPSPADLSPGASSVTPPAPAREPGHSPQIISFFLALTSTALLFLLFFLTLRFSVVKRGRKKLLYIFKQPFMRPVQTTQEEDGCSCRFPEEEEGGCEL
Binder,"Agonistic activity compared to B, 6 ug/mL [%]","Agonistic activity compared to B, 30 ug/mL [%]","Agonistic activity compared to Ctrl, 6 ug/mL [%]","Agonistic activity compared to Ctrl, 30 ug/mL [%]","hIL-6 (pg/mL), 6 ug/mL antibody [pg/mL]","hIL-6 (pg/mL), 30 ug/mL antibody [pg/mL]"
B1,100,100,347,380,4520,4340
B2,-1.27,6.51,-4.41,24.7,968,1130
B3,3.21,15.8,11.1,59.8,1130,1450
